Reference: paper PMC7863392 (EMBO Molecular Medicine, 2020)

Legend:
[1] = biological target: T1, PSMA in lysates of 22Rv1^high cells and of lung SCC tumor samples (Homo sapiens, UniProt Q04609-1); assay: co-IP; immunoprecipitation of PSMA from 22Rv1^high cell lysate with chimeric antibody on protein G agarose beads; Western blot with murine J591; conditions: one partner purified
T1 construct: prostate-specific membrane antigen (PSMA; FOLH1), human, endogenous; also called FOLH1; source: endogenous, lysates of 22Rv1^high cells and of slices of lung squamous cell carcinoma tumors
T1 sequence (Q04609 whole entry): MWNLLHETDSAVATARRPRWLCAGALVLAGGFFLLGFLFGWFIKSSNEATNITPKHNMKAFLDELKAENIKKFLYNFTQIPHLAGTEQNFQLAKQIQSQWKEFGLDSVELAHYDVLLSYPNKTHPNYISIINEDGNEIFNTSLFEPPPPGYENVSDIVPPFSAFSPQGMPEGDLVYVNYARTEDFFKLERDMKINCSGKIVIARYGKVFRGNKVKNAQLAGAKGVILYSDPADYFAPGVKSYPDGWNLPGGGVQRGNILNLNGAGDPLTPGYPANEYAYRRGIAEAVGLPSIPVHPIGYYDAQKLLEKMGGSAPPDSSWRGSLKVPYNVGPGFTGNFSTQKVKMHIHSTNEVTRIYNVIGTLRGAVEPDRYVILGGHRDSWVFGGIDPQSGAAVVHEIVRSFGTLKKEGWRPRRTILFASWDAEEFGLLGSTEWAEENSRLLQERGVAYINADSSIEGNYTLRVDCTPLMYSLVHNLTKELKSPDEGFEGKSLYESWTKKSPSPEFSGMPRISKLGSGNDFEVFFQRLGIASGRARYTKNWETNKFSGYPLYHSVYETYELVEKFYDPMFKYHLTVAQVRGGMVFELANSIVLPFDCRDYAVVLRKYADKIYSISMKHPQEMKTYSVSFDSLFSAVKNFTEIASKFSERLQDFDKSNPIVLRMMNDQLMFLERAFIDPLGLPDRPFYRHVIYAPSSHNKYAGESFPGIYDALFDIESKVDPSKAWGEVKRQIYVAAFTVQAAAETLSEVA

[2] = biological target: T2, recombinant, His-tagged PSMA produced by transfected CHO cells (Homo sapiens, UniProt Q04609); assay: SPR; chimeric antibodies immobilised on a Protein A coated sensor chip; His-tagged PSMA flowed; Biacore X, 25°C, 30 μl/min; conditions: both partners purified
T2 construct: prostate-specific membrane antigen (PSMA; FOLH1); probably the soluble extracellular part (surmised); source: transfected CHO cells
T2 sequence (Q04609 56-750): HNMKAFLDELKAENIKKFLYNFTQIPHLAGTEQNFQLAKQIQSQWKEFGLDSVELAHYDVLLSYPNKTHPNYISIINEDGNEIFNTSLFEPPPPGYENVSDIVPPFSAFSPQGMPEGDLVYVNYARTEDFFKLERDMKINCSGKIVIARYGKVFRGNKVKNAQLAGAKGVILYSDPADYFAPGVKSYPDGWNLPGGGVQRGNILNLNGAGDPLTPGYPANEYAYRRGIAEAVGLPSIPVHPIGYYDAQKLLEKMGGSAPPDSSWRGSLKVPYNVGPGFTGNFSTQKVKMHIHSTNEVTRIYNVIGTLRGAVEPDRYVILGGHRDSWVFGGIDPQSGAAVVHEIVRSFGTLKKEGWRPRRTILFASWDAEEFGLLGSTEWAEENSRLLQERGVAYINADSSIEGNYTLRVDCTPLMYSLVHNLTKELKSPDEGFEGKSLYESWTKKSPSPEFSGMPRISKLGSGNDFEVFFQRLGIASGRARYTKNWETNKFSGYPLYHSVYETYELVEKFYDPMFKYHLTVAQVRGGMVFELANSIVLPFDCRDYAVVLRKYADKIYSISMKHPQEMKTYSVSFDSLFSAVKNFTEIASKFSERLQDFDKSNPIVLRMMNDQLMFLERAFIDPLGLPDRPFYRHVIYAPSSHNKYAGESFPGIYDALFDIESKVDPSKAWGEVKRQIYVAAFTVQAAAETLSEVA

B1: chimeric J591 antibody (murine J591 variable regions fused to human constant regions) (antibody, V domains shown)
VH: EVQLQQSGPELVKPGTSVRISCKTSGYTFTEYTIHWVKQSHGKSLEWIGNINPNNGGTTYNQKFEDKATLTVDKSSSTAYMELRSLTSEDSAVYYCAAGWNFDYWGQGTTLTVSS
VL: DIVMTQSHKFMSTSVGDRVSIICKASQDVGTAVDWYQQKPGQSPKLLIYWASTRHTGVPDRFTGSGSGTDFTLAITNVQSEDLADYFCQQYNSYPLTFGAGTKLEIK
- binding result [1]: binds
- binding result [2]: binds
